What was measured:
[1] = target: T1, human APLP2 extracellular domain expressed with a C-terminal myc-myc-hexahistidine tag (human, UniProt Q06481 32-692); experiment: SPR, antibody captured, hAPLP2-MMH injected, 25 C
T1 construct: also called hAPLP2-MMH; APLP2.mmh

[2] = target: T1, human APLP2 extracellular domain …; experiment: SPR (Biacore 4000), antibody captured on anti-human Fc, hAPLP2-MMH injected, 37 C
Experimental: (§1) Equilibrium dissociation constants (KD values) for HER2 and APLP2 binding to purified anti-HER2xAPLP2 bispecific and parental antibodies were determined using a real-time surface plasmon resonance biosensor using a Biacore 4000 instrument. The Biacore sensor surface was first derivatized by amine coupling with a monoclonal mouse anti-human Fc antibody (GE, Cat #BR-1008-39) to capture anti-HER2xAPLP2 bispecific monoclonal antibodies. […] Kinetic association rate constant (ka) and dissociation rate constant (kd) were determined by fitting the real-time sensorgrams to a 1:1 binding model using Scrubber 2.0c curve fitting software. Binding dissociation equilibrium constants (KD) and dissociative half-lives (t1/2) were calculated from the kinetic rate constants as: […]

[3] = target: T2, human HER2 expressed on cells (cancer cell lines and normal primary cultures) (human, UniProt P04626 23-1255); experiment: cell-based or functional assay
[4] = target: T3, human HER2 extracellular domain expressed with a C-terminal myc-myc-hexahistidine tag (human, UniProt P04626 23-652); experiment: SPR (Biacore 4000), antibody captured on anti-human Fc, hHER2-MMH injected, 37 C
T3 construct: also called hHER2-MMH; HER2.mmh
Experimental: as §1

[5] = target: T2, human HER2 expressed on cells (cancer …); experiment: imaging, Alexa647-labelled antibody 10 ug/mL at 4 C on NBE cells; signal per nuclei, normalised to the highest cell line
Experimental: (§2) After, cells were washed twice with cold DMEM+10% FBS. […] After, the solution was replaced with DPBS/CM. Binding of the bispecific antibodies to each of the cell types was measured using an Image Xpress^Micro automatic microscope (Molecular Devices). […] (See also FIG. 2.)
(§3) The signal of antibody binding (mean intensity fluorescence of Alexa647) divided by the nuclei signals was determined for each condition using MetaXpress software (Molecular Devices). Values were normalized to the cell line displaying the highest antibody binding signal.

[6] = target: T2, human HER2 expressed on cells (cancer …); experiment: imaging, Alexa647-labelled antibody 10 ug/mL at 4 C on NLE cells; signal per nuclei, normalised to the highest cell line
Experimental: as §2, §3

[7] = target: T2, human HER2 expressed on cells (cancer …); experiment: imaging, Alexa647-labelled antibody 10 ug/mL at 4 C on MCF7 cells; signal per nuclei, normalised to the highest cell line
Experimental: as §2, §3

[8] = target: T2, human HER2 expressed on cells (cancer …); experiment: imaging, Alexa647-labelled antibody 10 ug/mL at 4 C on T47D cells; signal per nuclei, normalised to the highest cell line
Experimental: as §2, §3

[9] = target: T2, human HER2 expressed on cells (cancer …); experiment: imaging, Alexa647-labelled antibody 10 ug/mL at 4 C on SKBR3 cells; signal per nuclei, normalised to the highest cell line
Experimental: To test the ability of bispecific anti-HER2xAPLP2 molecules described herein to bind to cells lines expressing various levels of HER2, a high content imaging assay was performed. […] Cells were plated on collagen-coated, black wall, 96-well, optical plates (Greiner, Cat #655936) at 2.5×10⁵ cells per well in their appropriate culture media, which is described for each cell line/culture in Table 6, and incubated overnight at 37° C. in 5% CO₂.
as §2, §3

[10] = target: T2, human HER2 expressed on cells (cancer …); experiment: imaging, Alexa647-labelled antibody 10 ug/mL at 4 C on JIMT-1 cells; signal per nuclei, normalised to the highest cell line
Experimental: as §2, §3

[11] = target: T2, human HER2 expressed on cells (cancer …); experiment: imaging, Alexa647-labelled antibody 10 ug/mL at 4 C on MDA-MB-361 cells; signal per nuclei, normalised to the highest cell line
Experimental: as §2, §3

[12] = target: T2, human HER2 expressed on cells (cancer …); experiment: imaging, Alexa647-labelled antibody 10 ug/mL at 4 C on MDA-MB-453 cells; signal per nuclei, normalised to the highest cell line
Experimental: as §2, §3

Binder	90 nM hAPLP2-MMH Bound (RU) [1] [RU]	Kd [1] [nM]	t½ [1] [min]	100 nM hAPLP2-MMH Bound (RU) [2] [RU]	Kd [2] [nM]	t½ [2] [min]	IC50 (nM) of cell killing, JIMT-1 cells, 6 days, nuclei count [3] [nM]	further results
H4xH21371P2 (antibody, V domains shown, fully human antibody; also called anti-APLP2 parental antibody) VH: QVQLVQSGVEVKKPGASVKVSCKASGYTFTDYGISWVRQAPGQGLEWMGWISAHNGNTNYAQKLQGRVTMTTDTSTNTAYMELRSLRSDDTAVYYCARRNWKYFDYWGQGTLVTVSS VL: not shown	52.1	21.7	0.5	48	899	0.03		
H4H13050P2 (antibody, V domains shown, Names starting with H4 or H4H denote fully human antibodies; also called anti-HER2 parental antibody) VH: QVQLVQSGPEVKKPGASVKVSCKASGYTFPNFGISWVRQAPGQGLEWMGWIAPYNVATNYAPKLQGRVTMTTDTSTSTAYMELRSLRSDDTAVYYCARWGAGYMGYYYYGMDVWGQGTTVTVSS VL: not shown				-3				
H4H25018D-SMCC-DM1 (bispecific antibody, IgG4, V domains shown, SMCC-DM1 on lysines, sites not stated) VH 1: QVQLQESGPGLVKPSQTLSLTCTVSGGSISSGHYFWSWIRQHPGKGLEWIGYIFYSGSTHYNPSLKSRLSISVDTSKNQFSLRLTSVTAADTAVYYCAREEGDYNFWDVDYVPGHFDYWGQGTLVTVSS VH 2: EVQLVESGGGLVQPGRSLRLSCVASGFTFADYAMHWVRQAPGKGLEWVSGISWNSGNIDYADSVKGRFTISRDNAKNSLYLQMNSLRTEDTALYYCAKVRIVVAGYYYYYYGMDVWGQGTTVTVSS VL: not shown							0.07	
H4H25019D-Compound II (bispecific antibody, V domains shown, Compound II on reduced interchain cysteines) VH 1: QVQLVQSGPEVKKPGASVKVSCKASGYTFPNFGISWVRQAPGQGLEWMGWIAPYNVATNYAPKLQGRVTMTTDTSTSTAYMELRSLRSDDTAVYYCARWGAGYMGYYYYGMDVWGQGTTVTVSS VH 2: EVQLVESGGGLVQPGRSLRLSCVASGFTFADYAMHWVRQAPGKGLEWVSGISWNSGNIDYADSVKGRFTISRDNAKNSLYLQMNSLRTEDTALYYCAKVRIVVAGYYYYYYGMDVWGQGTTVTVSS VL: not shown							0.9	
H4H25014D (bispecific antibody, IgG4, V domains shown, Wild-type kappa CL and a modified (chimeric) IgG4 CH domain as set forth in US20140243504A1; also called bispecific anti-HER2xAPLP2 antibody) VH 1: QVQLQESGPGLVKPSQTLSLTCTVSGGSISSGHYFWSWIRQHPGKGLEWIGYIFYSGSTHYNPSLKSRLSISVDTSKNQFSLRLTSVTAADTAVYYCAREEGDYNFWDVDYVPGHFDYWGQGTLVTVSS VH 2: EVQLVESGGGLVQPGGSLRLSCAASGFTFSTYVMSWVRQAPGKGPEWVSGISGRTGTTYYADSVKGRFTISRDNSKNTLYLQMNSLRAEDTAVYYCASRITAAGRGYYYYYGMDVWGRGTTVTVSS VL: not shown	17.1	9.98	12.2	23	235	1.1		Kd [4]: 3.37 nM; t½ [4]: 16 min; Antibody bound (% of highest) [5]: 5%; Antibody bound (% of highest) [6]: 4%; Antibody bound (% of highest) [7]: 5%; Antibody bound (% of highest) [8]: 6%; Antibody bound (% of highest) [9]: 100%; Antibody bound (% of highest) [10]: 17%; Antibody bound (% of highest) [11]: 30%; Antibody bound (% of highest) [12]: 25%
H4H25019D-SMCC-DM1 (bispecific antibody, V domains shown, SMCC-DM1 on lysines, sites not stated) VH 1: QVQLVQSGPEVKKPGASVKVSCKASGYTFPNFGISWVRQAPGQGLEWMGWIAPYNVATNYAPKLQGRVTMTTDTSTSTAYMELRSLRSDDTAVYYCARWGAGYMGYYYYGMDVWGQGTTVTVSS VH 2: EVQLVESGGGLVQPGRSLRLSCVASGFTFADYAMHWVRQAPGKGLEWVSGISWNSGNIDYADSVKGRFTISRDNAKNSLYLQMNSLRTEDTALYYCAKVRIVVAGYYYYYYGMDVWGQGTTVTVSS VL: not shown							0.13	
H4H25018D-Compound II (bispecific antibody, V domains shown, Compound II on reduced interchain cysteines) VH 1: QVQLQESGPGLVKPSQTLSLTCTVSGGSISSGHYFWSWIRQHPGKGLEWIGYIFYSGSTHYNPSLKSRLSISVDTSKNQFSLRLTSVTAADTAVYYCAREEGDYNFWDVDYVPGHFDYWGQGTLVTVSS VH 2: EVQLVESGGGLVQPGRSLRLSCVASGFTFADYAMHWVRQAPGKGLEWVSGISWNSGNIDYADSVKGRFTISRDNAKNSLYLQMNSLRTEDTALYYCAKVRIVVAGYYYYYYGMDVWGQGTTVTVSS VL: not shown							0.3	
H4xH21387P2 (antibody, V domains shown, fully human antibody; also called anti-APLP2 parental antibody) VH: EVQLVESGGGLVQPGRSLRLSCVASGFTFADYAMHWVRQAPGKGLEWVSGISWNSGNIDYADSVKGRFTISRDNAKNSLYLQMNSLRTEDTALYYCAKVRIVVAGYYYYYYGMDVWGQGTTVTVSS VL: not shown	60.5	11.3	11	114	124	1.1		
H4H25018D-Compound I (bispecific antibody, V domains shown, Compound I on lysines, sites not stated) VH 1: QVQLQESGPGLVKPSQTLSLTCTVSGGSISSGHYFWSWIRQHPGKGLEWIGYIFYSGSTHYNPSLKSRLSISVDTSKNQFSLRLTSVTAADTAVYYCAREEGDYNFWDVDYVPGHFDYWGQGTLVTVSS VH 2: EVQLVESGGGLVQPGRSLRLSCVASGFTFADYAMHWVRQAPGKGLEWVSGISWNSGNIDYADSVKGRFTISRDNAKNSLYLQMNSLRTEDTALYYCAKVRIVVAGYYYYYYGMDVWGQGTTVTVSS VL: not shown							0.2	
H4H13055P2 (antibody, V domains shown, fully human antibody; also called anti-HER2 parental antibody) VH: QVQLQESGPGLVKPSQTLSLTCTVSGGSISSGHYFWSWIRQHPGKGLEWIGYIFYSGSTHYNPSLKSRLSISVDTSKNQFSLRLTSVTAADTAVYYCAREEGDYNFWDVDYVPGHFDYWGQGTLVTVSS VL: not shown				0				binding result [2]: no binding (tested: 300 nM highest concentration injected)
H4H25019D-Compound I (bispecific antibody, V domains shown, Compound I on lysines, sites not stated) VH 1: QVQLVQSGPEVKKPGASVKVSCKASGYTFPNFGISWVRQAPGQGLEWMGWIAPYNVATNYAPKLQGRVTMTTDTSTSTAYMELRSLRSDDTAVYYCARWGAGYMGYYYYGMDVWGQGTTVTVSS VH 2: EVQLVESGGGLVQPGRSLRLSCVASGFTFADYAMHWVRQAPGKGLEWVSGISWNSGNIDYADSVKGRFTISRDNAKNSLYLQMNSLRTEDTALYYCAKVRIVVAGYYYYYYGMDVWGQGTTVTVSS VL: not shown							0.75	
H4xH21362P2 (antibody, V domains shown, fully human antibody; also called anti-APLP2 parental antibody) VH: EVQLVESGGGLVQPGGSLRLSCAASGFTFSTYVMSWVRQAPGKGPEWVSGISGRTGTTYYADSVKGRFTISRDNSKNTLYLQMNSLRAEDTAVYYCASRITAAGRGYYYYYGMDVWGRGTTVTVSS VL: not shown	36.6	11.2	10.9	34	176	1.3		

Source: patent publication US20210246224A1 (Regeneron, published 2021)
